{"source": "patent US6106823", "biological_target": "CD3 (human)"}
{"substance": "anti-CD3 mAb SPV-T3b (antibody)", "values": [{"measurement": "lymphokine production (IL-2, ng/ml) by T cell clone 827 with CD3 + TPA", "result": 10.6, "unit": "ng/mL"}]}
